Columns and labels:
[1] = substrate: Nc1ncnc2c1ncn2[C@@H]1O[C@H](COP(=O)(O)OP(=O)(O)OP(=O)(O)O)[C@@H](O)[C@H]1O; test: purified protein; format: biochemical, Homo sapiens; settings: gluconate as fixed co-substrate, 0.65 mM NADP+, 100 mM phosphate, 40 mM NaCl, 2.5 mM MgCl2, pH 7.2, 0.25 µM enzyme
[2] = substrate: O=C(O)[C@H](O)[C@@H](O)[C@H](O)[C@H](O)CO; test: purified protein; format: biochemical, Homo sapiens; settings: 1 mM ATP, 0.65 mM NADP+, 100 mM phosphate, 40 mM NaCl, 2.5 mM MgCl2, pH 7.2, 0.25 µM enzyme

B1: human GntK (gluconokinase isoform I, C9orf103) (Homo sapiens) (protein)
chain: MAAPGALLVMGVSGSGKSTVGALLASELGWKFYDADDYHPEENRRKMGKGIPLNDQDRIPWLCNLHDILLRDVASGQRVVLACSALKKTYRDILTQGKDGVALKCEESGKEAKQAEMQLLVVHLSGSFEVISGRLLKREGHFMPPELLQSQFETLEPPAAPENFIQISVDKNVSEIIATIMETLKMK
notes: dimer, also tetramer
Km [1]: 343.8 ± 13.9 µM
Vmax [1]: 144 µM/min
kcat [1]: 9.5 ± 0.5 s⁻¹
kcat/Km [1]: 28000 ± 2000 M⁻¹ s⁻¹
Km [2]: 106.4 ± 18.5 µM
Vmax [2]: 138 µM/min
kcat [2]: 9.3 ± 0.5 s⁻¹
kcat/Km [2]: 89000 ± 13000 M⁻¹ s⁻¹
